Drawing on publication PMC12637224, “The nonconserved integrin cytoplasmic region determines integrin subtype–specific characteristics by modulating talin1 binding kinetics” (The Journal of Biological Chemistry, 2025), this text covers koff for one molecule.

Assay [1] addresses T1, HaloTag-fused talin1 (HT-talin1), endogenous knock-in in mouse primary T cells (mouse (endogenous knock-in in mouse T …, UniProt P26039 1-2541, HaloTag labelled with HT SaraFluor 650T Ligand)). Description: naive T cells, on MAdCAM1.
The target in assay [2] is T1, HaloTag-fused talin1 (HT-talin1), …. As to the kind of experiment: activated T cells, on MAdCAM1.

B1: α4/β7 integrin, endogenous on mouse primary T cells (receptor)
chain 1: YNLDPENALLYQGPSGTLFGYSVVLHSHGSKRWLIVGAPTASWLSNASVVNPGAIYRCGIRKNPNQTCEQLQSGSPSGEPCGKTCLEERDNQWLGVTLSRQPGENGSIVTCGHRWKNIFYMKSDNKLPTGICYVMPSDLRTELSKRMAPCYKDYTRKFGENFASCQAGISSFYTQDLIVMGAPGSSYWTGTVFVYNITTNQYKAFVDRQNQVKFGSYLGYSVGAGHFRSPHTTEVVGGAPQHEQIGKAYIFSIDENELNIVYEMKGKKLGSYFGASVCAVDLNADGFSDLLVGAPMQSTIREEGRVFVYINSGMGAVMVEMERVLVGSDKYAARFGESIANLGDIDNDGFEDIAIGAPQEDDLRGAVYIYNGRVDGISSTYSQRIEGQQISKSLRMFGQSISGQIDADNNGYVDVAVGAFQSDSAVLLRTRPVVIVEASLSHPESVNRTKFDCTENGLPSVCMHLTLCFSYKGKEVPGYIVLFYNVSLDVHRKAESPSRFYFFSNGTSDVITGSIRVSSSGEKCRTHQAFMRKDVRDILTPIHVEATYHLGHHVITKRNTEEFPPLQPILQQKKEKDVIRKMINFARFCAYENCSADLQVSAKVGFLKPYENKTYLAVGSMKTIMLNVSLFNAGDDAYETTLNVQLPTGLYFIKILDLEEKQINCEVTESSGIVKLACSLGYIYVDRLSRIDISFLLDVSSLSRAHEDLSISVHASCENEGELDQVRDNRVTLTIPLRYEVMLTVHGLVNPTSFVYGSSEENEPETCMAEKLNLTFHVINTGISMAPNVSVKIMVPNSFLPQDDKLFNVLDVQTTTGQCHFKHYGRECTFAQQKGIAGTLTDIVKFLSKTDKRLLYCMKADQHCLDFLCNFGKMESGKEASVHIQLEGRPSILEMDETSSLKFEIKATAFPEPHPKVIELNKDENVAHVFLEGLHHQRPKRHFTIIIITISLLLGLIVLLLISCVMWKAGFFKRQYKSILQEENRRDSWSYVNSKSNDD
chain 2: ELDTKITSSGEAAEWEDPDLSLQGSCQPVPSCQKCILSHPSCAWCKQLNFTASGEAEARRCARREELLARGCPAQELEEPRGRQEVLQDKPLSQGDRGEGATQLAPQRIRVTLRPGEPQKFRVRFLRAAGYPVDLYYLMDLSYSMKDDLERVRQLGHALLVRLQEVTHSVRIGFGSFVDKTVLPFVSTVPSKLHHPCPSRLERCQPPFSFHHVLSLTGDAQAFEREVGRQNVSGNLDSPEGGFDAILQAALCQEQIGWRNVSRLLVFTSDDTFHTAGDGKLGGIFMPSDGRCHLDSNGVYTNSAEFDYPSVGQVAQALTAANIQPIFAVTGATLPVYQELRQLIPKSAVGELSEDSSNVVQLIMDAYDSLSSTVTLEHSPLPPGVSISFESHCKGPEKTEGEAGDRGQCNDVRVNQTVDFWVTLQATHCLPEAHVLRLWALGFSEELTVELHTVCDCNCGDAQPHAPYCSDGQGDLQCGICSCAPGRLGQLCECSEADLSSPDLESGCRAPNGTGPLCSGKGRCQCGRCSCSGQSSGRLCECDDASCERHEGILCGGFGHCQCGVCHCHANHTGRACECSKSVDSCVSPEGGLCSGHGYCKCNRCQCLDGYYGALCDQCLGCKSPCEQYRDCAECGAFGTGPLAANCSVVCADVNVTLTLAPNLDDGWCKERTIDNQLFFFLVEHAASGIVLRVRPQEKGVDHTRAIILGCTGGIVAVGLGLVLAYRLSVEIYDRREYRRFEKEQQQLNWKQDNNPLYKSAITTTVNPRFQGTNGRSPSLSLTREAD
Turning to B1, the koff (as a rule, the rate constant with which the complex falls apart) in assay [1] came out at 0.576 s⁻¹; in assay [2] it was 0.61 s⁻¹.
